The test system of the series is putative Thermus thermophilus Pol III ε-subunit.

Regarding “Thermus thermophilus DNA Pol III α-subunit (DnaE)”, the “3′→5′ exonuclease activity” value is recorded as “This interaction stimulates the 3′→5′ exonuclease activity 5 fold”.

The record behind these values is patent US20060211003.
